In patent US20160333095A1 (published 2016):

T1: cynomolgus CD3 (UniProt Q95LI5 22-198)
T1 chain: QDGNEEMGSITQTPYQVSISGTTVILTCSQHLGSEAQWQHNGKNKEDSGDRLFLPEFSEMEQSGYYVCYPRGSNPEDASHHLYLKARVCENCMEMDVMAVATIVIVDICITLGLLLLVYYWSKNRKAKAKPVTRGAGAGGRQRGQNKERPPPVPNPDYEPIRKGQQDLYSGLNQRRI


Assays:
[1] = biological target: T1, cynomolgus CD3; assay: FACS binding, HSC-F cells
[2] = biological target: T2, human CD3 (UniProt P07766 22-207); assay: FACS binding, Jurkat cells
[3] = biological target: T1, cynomolgus CD3; assay: FACS binding, HSC-F cells; Fig 2B
[4] = biological target: T2, human CD3; assay: FACS binding, Jurkat cells; Fig 1B
[5] = biological target: T1, cynomolgus CD3; assay: FACS binding, HSC-F cells
[6] = biological target: T2, human CD3; assay: FACS binding, Jurkat cells; remark: listed apart in the source
[7] = biological target: T1, cynomolgus CD3; assay: FACS binding, HSC-F cells; Fig 2A
[8] = biological target: T2, human CD3; assay: FACS binding, Jurkat cells; Fig 1A
[9] = biological target: T1, cynomolgus CD3; assay: FACS binding, HSC-F cells; second row printed H4L1; graph legend indicates H4L3

T2 sequence (P07766 22-207): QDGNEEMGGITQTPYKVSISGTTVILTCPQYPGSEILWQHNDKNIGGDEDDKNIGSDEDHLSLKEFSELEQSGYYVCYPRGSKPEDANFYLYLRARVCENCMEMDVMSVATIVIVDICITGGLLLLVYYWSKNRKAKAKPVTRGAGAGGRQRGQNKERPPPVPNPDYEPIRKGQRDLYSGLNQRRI

Row | Binder | EC50 [1] [µg/mL] | EC50 [2] [µg/mL] | EC50 [3] [µg/mL] | EC50 [4] [µg/mL] | EC50 [5] [µg/mL] | EC50 [6] [µg/mL] | EC50 [7] [µg/mL] | EC50 [8] [µg/mL] | EC50 [9] [µg/mL]
1 | bsIgG1 huCD3-H3L1×HER2-LFLEDA (bispecific antibody, V domains shown) VH 1: EVKLVESGGGLVKPGRSLRLSCAASGFTFNTYAMNWVRQAPGKGLEWVARIRSKYNNYATYYADSVKDRFTISRDDSKSILYLQMNSLKTEDTAMYYCVRHGNFGNSYVSWFAYWGQGTLVTVSS VL 1: not shown VH 2: QVQLVQSGAEVKKPGASVKVSCKASGYTFTNYGISWVRQAPGQGLEWMGWLSAYSGNTIYAQKLQGRVTMTTDTSTTTAYMELRSLRSDDTAVYYCARDRIVVRPDYFDYWGQGTLVTVSS VL 2: EIVLTQSPATLSLSPGERATLSCRASQSVSSYLAWYQQKPGQAPRLLIYDASNRATGIPARFSGSGSGTDFTLTISSLEPEDFAVYYCQQRSNWPRTFGQGTKVEIK | 0.28 | 0.64 | 3.54 | 0.28 | – | – | – | – | –
2 | IgG1-CD3-LFLEDA (antibody, V domains shown) VH: EVKLLESGGGLVQPKGSLKLSCAASGFTFNTYAMNWVRQAPGKGLEWVARIRSKYNNYATYYADSVKDRFTISRDDSQSILYLQMNNLKTEDTAMYYCVRHGNFGNSYVSWFAYWGQGTLVTVSA VL: QAVVTQESALTTSPGETVTLTCRSSTGAVTTSNYANWVQEKPDHLFTGLIGGTNKRAPGVPARFSGSLIGDKAALTITGAQTEDEAIYFCALWYSNLWVFGGGTKLTVL | 0.06 | 0.18 | 0.47 | 0.07 | 0.06 | 0.27 | 0.3 | 0.08 | –
3 | bsIgG1-huCD3-H4L3×HER2-LFLEDA (bispecific antibody, V domains shown) VH 1: EVKLVESGGGLVKPGRSLRLSCAASGFTFNTYAMNWVRQAPGKGLEWVARIRSKYNNYATYYADSVKDRFTISRDDSKSILYLQMNSLKTEDTAMYYCVRHGNFGNSYVSWFAYWGQGTMVTVSS VL 1: QAVVTQEPSFSVSPGGTVTLTCRSSTGAVTTSNYANWVQQTPGQAFRGLIGGTNKRAPGVPARFSGSILGNKAALTITGAQADDESDYYCALWYSNLWVFGGGTKLTVL VH 2: QVQLVQSGAEVKKPGASVKVSCKASGYTFTNYGISWVRQAPGQGLEWMGWLSAYSGNTIYAQKLQGRVTMTTDTSTTTAYMELRSLRSDDTAVYYCARDRIVVRPDYFDYWGQGTLVTVSS VL 2: EIVLTQSPATLSLSPGERATLSCRASQSVSSYLAWYQQKPGQAPRLLIYDASNRATGIPARFSGSGSGTDFTLTISSLEPEDFAVYYCQQRSNWPRTFGQGTKVEIK | – | 0.59 | – | – | – | – | – | – | 0.24
